Measurements taken from IntAct's records for PubMed 11113154.

How the values were obtained:
bem1_yeast BEM1 [1] = target: bem1_yeast BEM1 (UniProt P29366)
bem1_yeast BEM1 [2] = target: bem1_yeast BEM1 (UniProt P29366); remark: listed apart in the source

Sequence of bem1_yeast BEM1 (P29366 whole entry): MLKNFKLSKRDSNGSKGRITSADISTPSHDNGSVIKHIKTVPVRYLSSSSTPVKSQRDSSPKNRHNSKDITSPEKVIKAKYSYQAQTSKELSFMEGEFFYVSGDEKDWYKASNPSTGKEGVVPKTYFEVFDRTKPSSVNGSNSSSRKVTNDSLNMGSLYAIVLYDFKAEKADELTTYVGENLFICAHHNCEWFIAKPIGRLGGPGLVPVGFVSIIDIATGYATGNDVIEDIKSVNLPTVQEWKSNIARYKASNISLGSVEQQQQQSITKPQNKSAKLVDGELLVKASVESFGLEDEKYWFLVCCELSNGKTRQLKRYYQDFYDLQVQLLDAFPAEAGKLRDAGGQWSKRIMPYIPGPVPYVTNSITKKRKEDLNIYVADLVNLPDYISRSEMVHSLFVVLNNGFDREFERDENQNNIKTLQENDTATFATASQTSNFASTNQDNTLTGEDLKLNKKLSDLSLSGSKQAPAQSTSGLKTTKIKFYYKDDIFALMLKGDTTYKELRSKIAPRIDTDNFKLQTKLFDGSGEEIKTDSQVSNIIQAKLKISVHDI
Sequence of Cell division control protein 42 (Saccharomyces cerevisiae), P19073 D57Y (P19073 whole entry D57Y): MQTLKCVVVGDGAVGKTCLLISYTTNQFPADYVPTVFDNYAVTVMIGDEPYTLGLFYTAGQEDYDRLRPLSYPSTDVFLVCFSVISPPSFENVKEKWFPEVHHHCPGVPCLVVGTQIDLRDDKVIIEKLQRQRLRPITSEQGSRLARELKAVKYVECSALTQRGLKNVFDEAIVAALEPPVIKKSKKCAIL
Sequence of Cell division control protein 42 (Saccharomyces cerevisiae), P19073 Q61L (P19073 whole entry Q61L): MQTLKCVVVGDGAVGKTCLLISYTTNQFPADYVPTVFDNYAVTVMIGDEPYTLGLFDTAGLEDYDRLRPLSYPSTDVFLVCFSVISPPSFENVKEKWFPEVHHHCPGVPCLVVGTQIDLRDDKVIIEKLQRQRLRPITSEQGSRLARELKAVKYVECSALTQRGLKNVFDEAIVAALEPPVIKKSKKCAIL

effect of a mutation on the interaction (bem1_yeast BEM1 [1])	effect of a mutation on the interaction (bem1_yeast BEM1 [2])	Substance
with no effect		Cell division control protein 42 (Saccharomyces cerevisiae), P19073 Q61L
	disrupting interaction strength	Cell division control protein 42 (Saccharomyces cerevisiae), P19073 D57Y
